According to paper PMC5749160, “Disruption of an RNA-binding hinge region abolishes LHP1-mediated epigenetic repression”:
Positions count from the first letter of the chain named.

Assays:
Details in all cases: protein: recombinant; tags: N-terminal GST (pGEX-4T-1); label: 5' Cy5; single-stranded
GST-LHP1 W129C = target: T1, GST-LHP1 W129C (Arabidopsis thaliana (Col-0 cDNA), UniProt Q946J8 1-445, W129C); assay: EMSA; wild-type RNA-binding activity retained; EMSA: 20 mM HEPES-KOH pH 7.5, 100 mM KCl, 0.05% NP-40, 10 nM Cy5 probe (1 uL of 100 nM + 9 uL protein), 30 min room temperature; 1.6% TBE-agarose gel
T1 sequence: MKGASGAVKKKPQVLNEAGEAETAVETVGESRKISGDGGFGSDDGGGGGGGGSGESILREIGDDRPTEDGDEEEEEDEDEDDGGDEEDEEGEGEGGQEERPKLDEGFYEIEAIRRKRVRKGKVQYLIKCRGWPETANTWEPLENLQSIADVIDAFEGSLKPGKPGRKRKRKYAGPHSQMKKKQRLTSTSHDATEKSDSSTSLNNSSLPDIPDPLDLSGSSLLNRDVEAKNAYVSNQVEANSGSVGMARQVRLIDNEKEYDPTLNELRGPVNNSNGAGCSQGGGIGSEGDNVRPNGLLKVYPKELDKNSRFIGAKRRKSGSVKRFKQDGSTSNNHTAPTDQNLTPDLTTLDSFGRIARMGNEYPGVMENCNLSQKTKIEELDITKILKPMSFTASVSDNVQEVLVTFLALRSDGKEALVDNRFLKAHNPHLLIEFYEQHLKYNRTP

GST-LHP1 KR33A = target: T2, GST-LHP1 KR33A (Arabidopsis thaliana (Col-0 cDNA), UniProt Q946J8 1-445, R166A;K167A;R168A;K169A;R170A;K171A;K180A;K181A;K182A;R184A;K195A;R224A;K229A;R2 …); assay: EMSA; EMSA: 20 mM HEPES-KOH pH 7.5, 100 mM KCl, 0.05% NP-40, 10 nM Cy5 probe (1 uL of 100 nM + 9 uL protein), 30 min room temperature; 1.6% TBE-agarose gel
T2 sequence: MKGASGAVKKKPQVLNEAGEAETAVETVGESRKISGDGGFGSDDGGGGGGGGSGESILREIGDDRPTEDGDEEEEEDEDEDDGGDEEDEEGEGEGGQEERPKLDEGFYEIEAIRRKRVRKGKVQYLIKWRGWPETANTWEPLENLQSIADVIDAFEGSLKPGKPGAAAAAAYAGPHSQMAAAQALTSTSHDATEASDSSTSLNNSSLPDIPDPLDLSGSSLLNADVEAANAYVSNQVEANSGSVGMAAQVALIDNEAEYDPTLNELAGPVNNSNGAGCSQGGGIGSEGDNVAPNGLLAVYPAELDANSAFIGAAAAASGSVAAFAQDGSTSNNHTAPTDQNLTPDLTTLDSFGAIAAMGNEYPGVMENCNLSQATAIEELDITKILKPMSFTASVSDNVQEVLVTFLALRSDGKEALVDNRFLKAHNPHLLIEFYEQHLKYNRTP

GST-LHP1 KR23A = target: T3, GST-LHP1 KR23A (Arabidopsis thaliana (Col-0 cDNA), UniProt Q946J8 1-445, R166A;K167A;R168A;K169A;R170A;K171A;K180A;K181A;K182A;R184A;K195A;R292A;K298A;K3 …); assay: as above
T3 sequence: T2 sequence with A224R, A229K, A248R, A251R, A257K, A267R, A354R, A357R, A374K, A376K

B1: FLC 40-nt ssRNA (ssRNA)
RNA: CUCCUCCGGCGAUAAGUACGCCUUUUCCUUACCUGGGUUU
B1: binds (GST-LHP1 W129C); no binding (GST-LHP1 KR33A); no binding (GST-LHP1 KR23A).
